To fix the notation:
B1: anti-TIM-3 antibody clone 1B9 (antibody, V domains shown)
VH: QVQLQQWGAGLLKPSETLSLTCAVYGGSFSGYYWSWIRQPPGKGLEWIGEINHSGSTNYNPSLKSRVTISVDTSKNQFSLKLSSVTAADTAVYYCARGYVAGSDAWGQGTLVTVSS
VL: QSVLTQPPSVSAAPGQKVTISCSGSSSNIGNNYVSWYQQLPGTAPKLLIYGNNWRPSGIPDRFSGSKSGTSATLGITGLQTGDEADYYCEAWDYYVAAGYFGGGTKLTVL
B2: anti-TIM-3 antibody clone 2G6 (antibody, V domains shown)
VH: B1 VH with S103F, A105S
VL: B1 VL with E90D, A91S, Y94S, Y95S, V96D, A97S, A98S, Y100V
B3: anti-TIM-3 antibody clone 2F4 (antibody, V domains shown)
VH: B1 VH
VL: B1 VL with A91S, Y95D, V96Y, A98S, Y100V
B4: anti-TIM-3 antibody clone 1F4 (antibody, V domains shown)
VH: B1 VH with S103Y, A105Y
VL: B1 VL with E90D, A91S, Y94A, Y95A, V96L, A97S, Y100V
B5: anti-TIM-3 antibody clone 1H9 (antibody, V domains shown)
VH: B1 VH with S103F, A105D
VL: B1 VL with E90D, A91S, Y94S, Y95A, V96D, A98S, Y100V
B6: anti-TIM-3 antibody clone 2C7 (antibody, V domains shown)
VH: B1 VH with S103Y, A105Y
VL: B1 VL with E90D, A91S, Y94S, V96L, Y100V
B7: anti-TIM-3 antibody clone 1H10 (antibody, V domains shown)
VH: B1 VH with S103F, A105S
VL: B1 VL with E90D, A91S, Y95D, V96Y, Y100V
B8: anti-TIM-3 antibody clone 1D9 (antibody, V domains shown)
VH: B1 VH with V100Y, S103D, A105Y
VL: B1 VL with Y94S, Y95A, V96Y, Y100S

Residue numbers refer to the chain shown, from its start.

Usually koff stands for the rate constant with which the complex falls apart. Read a high koff as a short-lived complex.

The first assay deals with T1, human TIM-3 coupled to Fc (human, UniProt Q8TDQ0 22-200). The assay is described as follows: SPR; culture supernatant. (In general: Surface plasmon resonance follows binding to a sensor surface in real time, without labels.)
Regarding B1, the koff was 4.3e-05 s⁻¹.

B2: the off-rate (koff) amounted to 0.00013 s⁻¹. This koff is about 3-fold higher than that of the molecule before.

As to B3, the off-rate (koff) was found to be 8.7e-05 s⁻¹.

As for B4, the koff is 0.0003 s⁻¹. This koff lies about 3.4-fold higher than the previous one.

B5 yielded a koff of 0.00016 s⁻¹.

In turn, B6 registered a koff of 0.00021 s⁻¹.

In turn, B7 came in with a koff of 2.9e-05 s⁻¹. This koff lies about 7.2-fold lower than the previous one.

B8 showed a koff of 0.00018 s⁻¹. Against the preceding molecule, the koff is about 6.2-fold higher.

The target in a further assay is T1, human TIM-3 coupled to Fc. The assay is described as follows: SPR; crude periplasmic extract.
In turn, B1 showed a koff of 2.8e-05 s⁻¹.

For the molecule B2, the off-rate constant (koff) came out at 0.00022 s⁻¹.

Regarding B3, the koff came out at 0.00014 s⁻¹.

In turn, B4 came in with an off-rate (koff) of 0.00029 s⁻¹.

The molecule B5 gave a koff of 7e-05 s⁻¹. This koff is about 4.1-fold lower than that of the molecule before.

B6 had a koff of 0.00019 s⁻¹. This koff lies about 2.7-fold higher than the previous one.

In the case of B7, the koff stood at 2.3e-05 s⁻¹.

Regarding B8, the off-rate constant (koff) is 0.00018 s⁻¹. This koff lies about 7.8-fold higher than the previous one.

Values taken from US20200055935A1 (published 2020).
